From patent publication US10294303B2, “Method of treating or ameliorating metabolic disorders using binding proteins for gastric inhibitory peptide receptor (GIPR) in combination with GLP-1 agonists” (AMGEN INC., priority 2015, dated 2019)

Experiments:
C57BL/6 DIO mice [1] = experiment: Chronic treatment of DIO mice with anti-GIPR 2.63.1 in combination with Liraglutide, Dulaglutide or Exendin IV; format: in vivo, mouse; conditions: 2.63.1 25 mg/kg once a week, Dulaglutide 1 mg/kg twice a week, Liraglutide 0.3 mg/kg once a day, Exendin IV 0.01 mg/kg once a day, i.p.
Protocol: Male C57BL/6 DIO mice were purchased from Jackson laboratory. Mice were singly housed and continued on high fat diet (60 kcal % fat, Research diet) after arrival. […] All treatments were administrated intraperitoneally. Blood samples were collected from tail vein or cardiac puncture at termination. Serum insulin levels were determined by using mouse high range insulin ELISA (ALPCO Diagnostics). The triglyceride levels were measured using an infinity triglyceride assay kit (Thermo Scientific). Total cholesterol was measured using an infinity total cholesterol kit (Thermo Scientific). Body composition was determined using the minispec whole body composition analyzer (Bruker). For oral glucose tolerance test, mice were fasted for 4 h. Glucose levels were measured and blood samples were taken from the tail vein before the OGTT was initiated. A bolus of glucose (2 g/kg) was given orally by a gavage needle. Glucose levels were measured at 15, 30 and 60 min after glucose administration using a glucose meter (Abbott).

[2] = rapid degradation by the DPP-IV enzyme; cited from earlier work
[3] = test system: high fat diet (HFD)-induced obese C57BL/6 mice; experiment: Mouse pharmacodynamic assay (IPGTT following exogenous [D-Ala2]-GIP) to test anti-murine GIPR antibody 2.63.1; format: in vivo; conditions: antibody i.p. the day before IPGTT, [D-Ala2]-GIP 50 nmol/kg i.p.
Protocol: FIG. 1 provides an overview of the pharmacodynamics assay to test anti-murine GIPR antibodies. Seven week old male high fat diet (HFD)-induced obese C57BL/6 mice were purchased from Jackson Labs. After arrival, mice were continued on high fat diet with Research Diets D12492 (60 kcal % fat) (Research diet) for one to two weeks. Mice were randomized by body weight and were administrated intraperitoneally with testing GIPR antibody or vehicle (10 mM acetate, 150 mM NaCl, pH 5.0) the day before intraperitoneal glucose tolerance test (IPGTT). Mice were fasted for 7 hours and IPGTT was performed immediately following exogenous GIP [D-Ala2]-GIP (50 nmol/kg, Phoenix Pharmaceuticals) given intraperitoneally. Blood samples were taken from tail nick at the times indicated. Glucose was measured using AlphaTrak blood glucose meter (Abbott). Blood insulin level was determined by using Insulin (mouse) ultra-sensitive EIA kit (ALPCO Diagnostics). […] 2.63.1 comprises a light chain with the following sequence: […]

C57BL/6 DIO mice [4] = experiment: Chronic treatment of DIO mice with anti-GIPR 2.63.1 in combination with Liraglutide; format: in vivo, mouse; conditions: 2.63.1 30 mg/kg twice a week, Liraglutide 0.3 mg/kg once a day, i.p.
Protocol: FIG. 24 provides an overview of the study used to determine the effects of chronic treatment of diet induced obese (DIO) mice with the mouse anti-mouse GIPR Ab (2.63.1) in combination with the GLP-1R agonist Liraglutide. Male C57BL/6 DIO mice were purchased from Jackson laboratory. Mice were single housed and continued on high fat diet (60 kcal % fat, Research Diets). Mice at 35 weeks old were randomized into groups and received one of the following treatments: A: vehicle (10 mM acetate, 9% sucrose, pH 5.2, and saline); B: 2.63.1 (30 mg/kg, twice a week); C: Liraglutide (0.3 mg/kg, once a day) and D: 2.63.1 (30 mg/kg, twice a week) and Liraglutide (0.3 mg/kg, once a day). All treatments were administrated intraperitoneally.
Blood samples were collected from tail vein or cardiac puncture at termination. Serum insulin levels were determined by using mouse high range insulin ELISA (ALPCO Diagnostics). Serum leptin levels were measured using mouse and rat leptin ELISA kit from BioVendor. The triglyceride levels were measured using an infinity triglyceride assay kit (Thermo Scientific). Total cholesterol was measured using an infinity total cholesterol kit (Thermo Scientific). At termination, liver, epididymal fat and inguinal fat were isolated and weighed using a balance.
Body composition was determined using the minispec whole body composition analyzer (Bruker).
For the oral glucose tolerance test (OGTT), mice were fasted for 4 hours. Glucose levels were measured and blood samples were taken from the tail vein before the OGTT was initiated. A bolus of glucose (2 g/kg) was given orally by a gavage needle. Glucose levels were measured at 15, 30 and 60 min after glucose administration using a glucose meter (Abbott).

C57BL/6 DIO mice [5] = experiment: Chronic treatment of diet induced obese mice with GIPR antibody 2.63.1; format: in vivo, mouse; conditions: twice a week i.p. for 6 weeks
Protocol: FIG. 3 provides an overview of the study used to determine the effects of chronic treatment of diet induced obese (DIO) mice with the 2.63.1 antibody. 18 week old male C57BL/6 DIO mice fed Research Diets D12492 (60 kcal % fat) were randomized into groups. Treatments were given twice a week intraperitoneally for 6 weeks. Blood glucose levels were measured from tail nick using a glucose meter (Abbott) after mice were fasted for 4 hours. Insulin levels were determined using mouse high range insulin ELISA (ALPCO Diagnostics). Triglyceride levels were measured using an Infinity triglyceride assay kit (Thermo Scientific). Total cholesterol was measured using an Infinity total cholesterol kit (Thermo Scientific). Body composition was determined using the minispec whole body composition analyzer (Bruker).
For intraperitoneal glucose tolerance test (IPGTT), mice were fasted for 4 hours. Glucose levels were measured and blood samples were taken from the tail vein before IPGTT was initiated. IPGTT was performed by intraperitoneal injection of glucose (1 g/kg body weight). Glucose levels were measured at 20, 40 and 60 minutes after glucose administration by using a glucose meter (Abbott). FIG. 4.
At termination, liver and epididymal fat was isolated and weighed using a balance. One piece of each tissue was fixed in 10% buffered formalin for 24 hours.

C57BL/6 DIO male mice = experiment: Anti-GIPR 2.63.1 treatment in DIO mice pre-treated with Liraglutide (two-phase study); format: in vivo, mouse; conditions: Liraglutide 0.05 or 0.3 mg/kg daily for 2 weeks, then 2.63.1 25 mg/kg weekly added
Excerpt: FIG. 41 provides an overview of the study used to determine the effects of chronic treatment of diet induced obese (DIO) mice pre-treated with Liragutide with the mouse anti-mouse GIPR Ab (2.63.1). C57BL/6 DIO male mice (17 week old) fed Research Diets D12492 (60% kcal fat) for 13 weeks were randomized into groups. During phase 1 (pre-treatment phase), animals were intraperitoneally dosed daily for 2 weeks with either 1) saline (0.9% sodium chloride), 2) Liraglutide (BAChem #H-6724-0005) at 0.05 mg/kg, 3) Liraglutide at 0.3 mg/kg, or 4) Liraglutide 0.3 mg/kg in combination with a weekly dose of mouse anti-mouse GIPR Ab (2.63.1) in vehicle (10 mM acetate, 9% sucrose, pH 5.2) at 25 mg/kg;ll other groups (1-3) received a weekly dose of vehicle. During phase 2 (experimental stage) mouse anti-mouse GIPR Ab (2.63.1) treatment was initiated in the animals pre-treated with Liraglutide. Blood glucose levels were measured from retro orbital sinus using a glucose meter (Abbott) after mice were fasted for 4 hours before phase 1, end of phase 1, and at the end of the experiment. Insulin levels were determined using mouse high range insulin ELISA (ALPCO Diagnostics). […] Plasma was analyzed on the Olympus chemistry analyzer for liver enzymes, cholesterol, triglycerides, and NEFA. Plasma was analyzed in mouse metabolism multiplex assay (MMHMAG-44K—EMD Millipore) for mouse hormones.

## Dulaglutide: GLP1R agonist; also known LY2189265, Eli Lilly and Company [reference compound]
C57BL/6 DIO mice [1]
  effect on fat mass loss of the combination GIPR Ab 2.63.1 with GLP-1R agonist (Liraglutide, Dulaglutide or Exendin IV): synergistic effect
  effect on weight loss of the combination GIPR Ab 2.63.1 with GLP-1R agonist (Liraglutide, Dulaglutide or Exendin IV): synergistic effect

## GLP-1: 31-amino acid peptide derived from the proglucagon gene
[2]
  half-life: approximately 2 minutes

B1: 2.63.1: anti-murine GIPR antibody; light chain SEQ ID NO: 3161, heavy chain SEQ ID NO: 3162 (antibody)
heavy: MGWSYIILFLVATATDVHSQVQLQQPGAELVKPGASVKLSCRASGYTFTSNWMHWVKQRPRQGLEWIGEINPSNGRSNYNEKFKTKATLTVDKSSSTAYMQLSSLTSEDSAVYYCARFYYGTSWFAYWGQGTLVAVSAAKTTPPSVYPLAPGSAAQTNSMVTLGCLVKGYFPEPVTVTWNSGSLSSGVHTFPAVLQSDLYTLSSSVTVPSSTWPSETVTCNVAHPASSTKVDKKIVPRDCGCKPCICTVPEVSSVFIFPPKPKDVLTITLTPKVTCVVVDISKDDPEVQFSWFVDDVEVHTAQTQPREEQFASTFRSVSELPIMHQDWLNGKEFKCRVNSAAFPAPIEKTISKTKGRPKAPQVYTIPPPKEQMAKDKVSLTCMITDFFPEDITVEWQWNGQPAENYKNTQPIMDTDGSYFVYSKLNVQKSNWEAGNTFTCSVLHEGLHNHHTEKSLSHSPGK
light: MKLPVRLLVLMFWIPASSSDVVMTQTPLSLPVSLGDQASISCRSSQSLVHSNGDTYLHWYLQKPGQSPKLLIYKVSNRFSGVPDRFSGSGSGTDFTLKISRVEAADLGVYFCSQSTHVPPFTFGGGTKLEIKRADAAPTVSIFPPSSEQLTSGGASVVCFLNNFYPKDINVKWKIDGSERQNGVLNSWTDQDSKDSTYSMSSTLTLTKDEYERHNSYTCEATHKTSTSPIVKSFNRNEC
[3]; FIG. 2A
  GIP induced glucose levels: Antagonized
[3]; FIG. 2B
  GIP induced insulin secretion: antagonizes GIP induced insulin secretion
C57BL/6 DIO mice [4]
  body weight: prevented weight gain
  glucose levels: lowered glucose
  insulin levels: lowered
C57BL/6 DIO mice [1]
  effect on fat mass loss of the combination GIPR Ab 2.63.1 with GLP-1R agonist (Liraglutide, Dulaglutide or Exendin IV): synergistic effect
  effect on weight loss of the combination GIPR Ab 2.63.1 with GLP-1R agonist (Liraglutide, Dulaglutide or Exendin IV): synergistic effect
C57BL/6 DIO mice [5]; 4 hours fast, FIG. 7
  fasting glucose levels: lower fasting glucose levels
C57BL/6 DIO mice [5]; FIG. 4
  body weight gain: Reduced Body Weight Gain
C57BL/6 DIO mice [5]; FIG. 5
  fat mass: lower fat mass
C57BL/6 DIO mice [5]; FIG. 6
  epididymal white adipose tissue weights: lower epididymal white adipose tissue weights
C57BL/6 DIO mice [5]; FIG. 8
  insulin levels: lower insulin levels
C57BL/6 DIO mice [5]; FIG. 10A
  serum total cholesterol: lower serum total cholesterol
C57BL/6 DIO mice [5]; FIG. 10B
  serum triglycerides: Lower
C57BL/6 DIO mice [5]; FIG. 11
  hepatocyte microvesicular change and corresponding lipid accumulation: reduction in hepatocyte microvesicular change and corresponding lipid accumulation
C57BL/6 DIO mice [5]; FIG. 12A
  liver weight: reduced liver weight
C57BL/6 DIO mice [5]; FIG. 12B
  liver triglyceride content: reduced
C57BL/6 DIO mice [5]; FIG. 13
  inflammation and infiltrating macrophages surrounding adipocytes in epididymal white adipose tissue: reduced inflammation and reduced infiltrating macrophages cells surrounding adipocytes
C57BL/6 DIO mice [5]; glucose 1 g/kg i.p., FIG. 9
  glucose tolerance (IPGTT): improved glucose tolerance
C57BL/6 DIO male mice
  weight loss in animals pre-treated with Liraglutide: weight loss effect of anti-GIPR can be observed in animals already receiving GLP-1R agonist therapy
